What is called Tm is the temperature at which the thermal transition is half complete.

Data on three variants can be found in FireProtDB (doi:10.1002/prot.20496).

To fix the notation:
B1: Alpha-lactalbumin, P00712 (parent)
chain: MMSFVSLLLVGILFHATQAEQLTKCEVFQKLKDLKDYGGVSLPEWVCTAFHTSGYDTQAIVQNNDSTEYGLFQINNKIWCKDDQNPHSRNICNISCDKFLDDDLTDDIVCAKKILDKVGINYWLAHKALCSEKLDQWLCEKL

Several values for one entry are separate records, joined by “and”; a condition that tells them apart may be missing. Equal entries are not always repeated.

In the data set the parent is B1. The following applies: Capra hircus, pH 7.5, Thermal, Tris-HCl 10 mM, CaCl2 2 mM, structure 1HFY, whole UniProt chain shown.

MMSFVSLLLVGILFHATQAEQLTKCEVFQKLKDLKDYGGVSLPEWVCTAFHTSGYDTQAIVQNNDSTEYGLFQINNKIWCKDDQNPHSRNICNISCDKFLDDDLTDDIVCAKKILDKVGINYWLAHKALCSEKLDQFLCEKL: for the setting “DSC”, the Tm stood at 71.5 °C and the “change of melting temperature, mutant - wild type (higher = more stable)” value (“change of melting temperature, mutant” for short) is 0.4 °C.
Consider MMSFVSLLLVGILFHATQAEQLTKCEVFQKLKDLKDYGGVSLPEWVCTAFHTSGYDTQAIVQNNDSTEYGLFQINNKIFCKDDQNPHSRNICNISCDKFLDDDLTDDIVCAKKILDKVGINYWLAHKALCSEKLDQFLCEKL, for which, under “DSC”, the Tm was 68.1 °C and the “change of melting temperature, mutant” value is -3 °C. Further, where the note is “Fluorescence”, the Tm was 71 °C and 68 °C; the “change of melting temperature, mutant” value is -0.2 °C and -1.9 °C.
Take MMSFVSLLLVGILFHATQAEQLTKCEVFQKLKDLKDYGGVSLPEWVCTAFHTSGYDTQAIVQNNDSTEYGLFQINNKIFCKDDQNPHSRNICNISCDKFLDDDLTDDIVCAKKILDKVGINYWLAHKALCSEKLDQWLCEKL: where the note is “DSC”, the Tm is 67.9 °C and the “change of melting temperature, mutant” value was -3.2 °C. For the setting “Fluorescence”, the Tm is 69.2 °C and the “change of melting temperature, mutant” value was -2 °C.
